Data as given in patent publication US8580549B2, “Esterases for separating plastics” (Henkel KGaA, priority 2005, dated 2013).

Experiments:
Format in all cases: biochemical
[1] = Substrate specificity to para-nitrophenyl esters: p-NP-caproate; details: p-NP-caproate 0.8 mM, phosphate buffer pH 8, room temperature, 410 nm
Method: (§1) For the determination of chain length specificities of the investigated esterases, p-nitrophenyl esters with different chain lengths were used as the substrate for the spectroscopic measurements of activity. To the p-nitrophenyl esters dissolved in 10 mL isopropanol were added 90 mL phosphate buffer (pH 8, disodium hydrogen phosphate and potassium dihydrogen phosphate). The final concentration of the substrate was 0.8 mM. Each 990 μL buffer-substrate mixture was mixed with 10 μL of the enzyme sample and incubated at room temperature for one minute. The increase in absorption at 410 nm was then measured (UV MC^2, SAFAS, Monaco). The enzyme activity was calculated using a molar extinction coefficient of 17100 [M^−1cm^−1], wherein 1 unit was defined as the quantity of enzyme that released 1 μmol p-nitrophenol per minute.
(§2) The data in Table 3 represent mean values from three independent measurements with a relative standard deviation of less than 10%.

[2] = Titrimetric Michaelis-Menten kinetics, hydrolysis of dibutyl phthalate; details: substrate DBP; for kcat: assumes added enzyme = active enzyme; for vMax: titrimetric, 30° C., pH 9
Method: (§3) The enzyme activities of the esterases were measured with the titration apparatus 702 SAT (METROHM Ltd., Switzerland) for various substrates of the phthalate family (FIG. 4). The phthalates were dissolved in diethyl ether with 0.5 g Triton X100. The diethyl ether was then removed under a stream of nitrogen. 50 ml buffer (2 mM Tris/HCl, pH 9) was added, homogenized by ultrasound and used in different final concentrations (0.3 mM to 100 mM) in a total reaction volume of 2 mL (including enzyme). The reaction buffer was pre-incubated at 30° C. for 10 minutes. After addition of the enzyme, the NaOH consumption (concentration determination by triple titration with oxalic acid) at a reaction temperature of 30° C. was plotted. One unit is defined as the enzyme activity that releases 1 μmol acid per minute.
(§4) Titrimetric measurements were carried out to determine the kinetic constants vmax, kM, kcat and kcat/kM of the three para-nitrobenzyl esterases pNB-Est17, pNB-Est19 and pNB-Est13 towards different phthalates and terephthalates. The enzyme activities were determined for different substrate concentrations and evaluated according to MICHAELIS-MENTEN (see FIGS. 5 to 7). The measured kM- and vmax values and the added enzyme concentrations were used to calculate the kinetic constants (kcat and k2) and the catalytic efficiency (kcat/kM)—under the assumption that the added enzyme concentration was the same as the concentration of the active enzyme.
(§5) The data in FIGS. 5 to 7 and Tables 5 to 7 represent mean values from three independent titrimetric measurements with a relative standard deviation of less than 5%. The calculation of kcat and kcat/kM was based on the assumption that the added enzyme concentration was the same as the concentration of the active enzyme.

[3] = Substrate specificity to para-nitrophenyl esters: p-NP-stearate; details: p-NP-stearate 0.8 mM, phosphate buffer pH 8, room temperature, 410 nm
Method: as §1, §2

[4] = Substrate specificity to para-nitrophenyl esters: p-NP-butyrate; details: p-NP-butyrate 0.8 mM, phosphate buffer pH 8, room temperature, 410 nm
Method: as §1, §2

[5] = Substrate specificity to para-nitrophenyl esters: p-NP-caprate; details: p-NP-caprate 0.8 mM, phosphate buffer pH 8, room temperature, 410 nm
Method: as §1, §2

[6] = Substrate specificity to para-nitrophenyl esters: p-NP-palmitate; details: p-NP-palmitate 0.8 mM, phosphate buffer pH 8, room temperature, 410 nm
Method: as §1, §2

[7] = Titrimetric Michaelis-Menten kinetics, hydrolysis of dimethyl isophthalate; details: substrate DMIP; for kcat: assumes added enzyme = active enzyme; for vMax: titrimetric, 30° C., pH 9
Method: as §3, §4, §5

[8] = Titrimetric Michaelis-Menten kinetics, hydrolysis of dimethyl phthalate; details: substrate DMP; for kcat: assumes added enzyme = active enzyme; for vMax: titrimetric, 30° C., pH 9
Method: as §3, §4, §5

[9] = Titrimetric Michaelis-Menten kinetics, hydrolysis of dimethyl terephthalate; details: substrate DMT; for kcat: assumes added enzyme = active enzyme; for vMax: titrimetric, 30° C., pH 9
Method: as §3, §4, §5

[10] = Titrimetric Michaelis-Menten kinetics, hydrolysis of diethyl phthalate; details: substrate DEP; for kcat: assumes added enzyme = active enzyme; for vMax: titrimetric, 30° C., pH 9
Method: as §3, §4, §5

[11] = Substrate specificity to para-nitrophenyl esters: p-NP-caprylate; details: p-NP-caprylate 0.8 mM, phosphate buffer pH 8, room temperature, 410 nm
Method: as §1, §2

[12] = Substrate specificity to para-nitrophenyl esters: p-NP-myristate; details: p-NP-myristate 0.8 mM, phosphate buffer pH 8, room temperature, 410 nm
Method: as §1, §2

[13] = Titrimetric Michaelis-Menten kinetics, hydrolysis of diethyl terephthalate; details: substrate DET; for kcat: assumes added enzyme = active enzyme; for vMax: titrimetric, 30° C., pH 9
Method: as §3, §4, §5

[14] = Substrate specificity to para-nitrophenyl esters: p-NP-laurate; details: p-NP-laurate 0.8 mM, phosphate buffer pH 8, room temperature, 410 nm
Method: as §1, §2

[15] = Esterase activity by hydrolysis of bis-(p-methylbenzoic acid) ester of ethylene glycol (titration); details: titrimetric, 30° C., tris/HCl pH 9.0; for Specific Activity / vMax: mean of three measurements
Method: 2.4.2 Determination of the Enzymatic Activity
The cleavage of the bis-(p-methylbenzoic acid) ester of ethylene glycol catalyzed by the inventive enzymes affords 2 equivalents of 4-methylbenzoic acid and ethylene glycol (see FIG. 2).
For the preparation of the enzyme assay, the desired amount of substrate was mixed with 0.5 g Triton X100 and dissolved with heating in 50 mL ethanol (99%, denatured). Once all the substrate was dissolved, the solution was added to 50 mL buffer (2 mM tris/HCl buffer; pH 9.0) with intense stirring by Ultra-Turrax. This solution was then stirred at room temperature for at least 12 hours in order to remove a large part of the added ethanol. The thus-prepared substrate solution was immediately titrated. The reaction buffer was pre-incubated at 30° C. for 10 minutes.
Different final concentrations (0.67 mM to 50 mM) were used in a total reaction volume of 2 mL including enzyme. After addition of the enzyme, the NaOH consumption (concentration determination by triple titration with oxalic acid) with the titration apparatus 702 SAT (METROHM Ltd., Switzerland)) at a reaction temperature of 30° C. was plotted. One unit is defined as the enzyme activity that releases 1 μmol acid per minute.
In this and the subsequent examples, the following abbreviations are used for the tested esterases: enzyme according to Seq ID No. 12 (pNB-Est13), enzyme according to Seq ID No. 2 (pNB-Est19), enzyme according to Seq ID No. 1 (pNB-Est17). The data obtained for the cited esterases in Table 2 were determined by titrimetric measurements and represent mean values from: three independent measurements with a relative standard deviation of less than 5%.

Molecule	Specific Activity [1] [U/mg]	vMax [2] [U/mg]	Specific Activity [3] [U/mg]	Specific Activity [4] [U/mg]	Specific Activity [5] [U/mg]	Specific Activity [6] [U/mg]	kcat [7] [s⁻¹]	vMax [7] [U/mg]	kcat [8] [s⁻¹]	vMax [8] [U/mg]	kcat [9] [s⁻¹]	vMax [9] [U/mg]	kcat [10] [s⁻¹]	vMax [10] [U/mg]	Specific Activity [11] [U/mg]	Specific Activity [12] [U/mg]	kcat [13] [s⁻¹]	vMax [13] [U/mg]	Specific Activity [14] [U/mg]	kcat [15] [s⁻¹]	also measured
pNB-Est17: para-nitrobenzyl esterase, enzyme according to Seq ID No. 1, from Bacillus subtilis (17A1), 489 amino acids (protein, listed as Bacillus subtilis) MTHQIVTTQYGKVKGTTENGVHKWKGIPYAKPPVGQWRFKAPEPPEVWEDVLDATAYGPICPQPSDLLSLSYTELPRQSEDCLYVNVFAPDTPSQNLPVMVWIHGGAFYLGAGSEPLYDGSKLAAQGEVIVVTLNYRLGPFGFLHLSSFDEAYSDNLGLLDQAAALKWVRENISAFGGDPDNVTVFGESAGGMSIAALLAMPAAKGLFQKAIMESGASRTMTKEQAASTSAAFLQVLGINEGQLDKLHTVSAEDLLKAADQLRIAEKENIFQLFFQPALDPKTLPAEPEKAISEGAASGIPLLIGTTRDEGYLFFTPDSDVHSQETLDAALEYLLGKPLAEKAADLYPRSLESQIHMMTDLLFWRPAVAYASAQSHYAPVWMYRFDWHPKKPPYNKAFHALELPFVFGNLDGLERMAKAEITDEVKQLSHTIQSAWITFAKTGNPSTEAVNWPTYHEETRETLILDSEITIENDPESEKRQKLFPSKGE	102.7	48.03	<1	196.3	10.2	<1	38880	11.99	45672	14.09	60028	18.52	31065	9.57	73.2	<1	90998	28.06	3.4	5177	kcat [2]: 155676 s⁻¹; Specific Activity [15]: 1.60 µmol/min/mg; vMax [15]: 0.642 µmol/min
pNB-Est19: para-nitrobenzyl esterase, enzyme according to Seq ID No. 2, from Bacillus licheniformis (19C5), 489 amino acids (protein, listed as Bacillus licheniformis) MTHQIVTTQYGKVKGTTENGVHKWKGIPYAKPPVGQWRFKAPEPPEVWEDVLDATAYGPICPQPSDLLSLSYTELPRQSEDCLYVNVFAPDTPSQNLPVMVWIHGGAFYLGAGSEPLYDGSKLAAQGEVIVVTLNYRLGPFGFLHLSSFDEAYSDNLGLLDQAAALKWVRENISAFGGDPDNVTVFGESAGGMSIAALLAMPAAKGLFQKAIMESGASRTMTKEQAASTSAAFLQVLGINEGQLDKLHTVSAEDLLKAADQLRIAEKENIFQLFFQPALDPKTLPAEPEKAISEGAASGIPLLIGTTRDEGYLFFTPDSDVHSQETLDAALEYLLGKPLAEKAADLYPRSLESQIHMMTDLLFWRPAVAYASAQSHYAPVWMYRFDWHPKKPPYNKAFHALELPFVFGNLDGLERMAKAEITDEVKQLSHTIQSAWITFAKTGNPSTEAVNWPTYHEETRETLILDSEITIENDPESEKRQKLFPSKGE	249.6	40.69	<1	234.8	3.9	<1	27637	8.55	50970	15.76	50718	15.69	23265	7.20	83.6	1.3	99411	30.79	4.0	3838	Specific Activity [15]: 1.19 µmol/min/mg; vMax [15]: 0.385 µmol/min
pNB-Est13: para-nitrobenzyl esterase, enzyme according to Seq ID No. 12, Bacillus licheniformis DSM13 (gi 52346943) (protein, listed as Bacillus licheniformis) MYDTTVETRFGKLKGRAENGVRIFKGVPYAKPPVGDLRFREPQRMEAWEGELDAFQFGPVCPQPDGVLPESAGVQKSEDCLYLNVYAPEEADGDLPVMVWIHGGAFYRGAGSEPLYDGTQLAKQGKVIVVTINYRLGPFGFLHLSSIDDSYSSNLGLLDQIAALEWVKDNIAFFGGDRHHITVFGESAGSMSIASLLAMPKAKGLFQQAIMESGASATMSDKLAKAAAERFLRILDIDHHHLERLHDVSDQELLEAADQLRTLMGENIFELIFLPALDEKTLPLKPEVAVAKGAAKEINLLIGTNRDEGVLFFPSDSDLLPESKINEILEEYMGKEAAEAASSLYPRSLEGHVDMMTDLIFWHPSVVFASAQSRYASVFMYRFDWHADSEQPPFNKAAHGLEIPFVFGNMDILEQLTGTKAGEEAQLLAEQIQAAWVSFARSGNPSTDDVSWPDYDEDSRKTLIFDQEVAVESDPYSDKRKMLTAPNPQI	50.5	2.87	<1	22.4	4.4	<1	90267	27.67	29735	9.11	14784	4.53	10468	3.21	13.0	<1	12574	3.57	1.3	9358	kcat [2]: 9356 s⁻¹; Specific Activity [15]: 2.87 µmol/min/mg; vMax [15]: 1.801 µmol/min
